Experiments:
Experiment in all cases: purified protein
[1] = test system: T1, Nc1ccccc1C(=O)O; assay type: biochemical, Arabidopsis thaliana; conditions: 1 mM PR-PPi, 45 mM imidazole HCl pH 7.4, 30 °C, anthranilate 0-0.75 mM
T1 construct: codon-optimized gene in pET28a, His-tagged, E. coli BL21 (DE3), Ni-NTA

[2] = test system: T2, Nc1c(O)cccc1C(=O)O; assay type: biochemical, Arabidopsis thaliana; conditions: 1 mM PR-PPi, 45 mM imidazole HCl pH 7.4, 30 °C, 3-HAA 0-0.5 mM
T2 construct: codon-optimized gene in pET28a, His-tagged, E. coli BL21 (DE3), Ni-NTA

[3] = test system: T2, Nc1c(O)cccc1C(=O)O; assay type: biochemical, Juglans regia; conditions: 1 mM PR-PPi, 45 mM imidazole HCl pH 7.4, 30 °C, 3-HAA 0-0.5 mM
[4] = test system: Nc1ccccc1C(=O)O; assay type: biochemical, Juglans regia; conditions: 1 mM PR-PPi, 45 mM imidazole HCl pH 7.4, 30 °C, anthranilate 0-0.75 mM
[5] = test system: Nc1ccccc1C(=O)O; assay type: biochemical, Physcomitrium patens; conditions: 1 mM PR-PPi, 45 mM imidazole HCl pH 7.4, 30 °C, anthranilate 0-0.75 mM
[6] = test system: T1, Nc1ccccc1C(=O)O; assay type: biochemical, Selaginella moellendorffii; conditions: 1 mM PR-PPi, 45 mM imidazole HCl pH 7.4, 30 °C, anthranilate 0-0.75 mM
[7] = test system: T2, Nc1c(O)cccc1C(=O)O; assay type: biochemical, Selaginella moellendorffii; conditions: 1 mM PR-PPi, 45 mM imidazole HCl pH 7.4, 30 °C, 3-HAA 0-0.5 mM

For AtPAT1 (Arabidopsis thaliana), the Km [1] was 20.6 ± 2.0 µM, the kcat [1] was 0.132 ± 0.00167 s⁻¹ and the kcat/Km [1] was 6360 M⁻¹ s⁻¹. For the same substance, the Km [2] was 19.63 ± 2.3 µM, the kcat [2] was 0.0483 ± 0.00117 s⁻¹ and the kcat/Km [2] was 2470 M⁻¹ s⁻¹.

JrPAT1 (Juglans regia) was tested, and the Km [3] was 28.23 ± 4.2 µM, the kcat [3] was 0.0483 ± 0.00167 s⁻¹ and the kcat/Km [3] was 1690 M⁻¹ s⁻¹. It also gave a Km [4] of 38.7 ± 3.5 µM, a kcat [4] of 0.055 ± 0.00167 s⁻¹ and a kcat/Km [4] of 1420 M⁻¹ s⁻¹.

With PpPAT1 (Physcomitrium patens) the Km [5] was 31.8 ± 4.4 µM, the kcat [5] was 0.0567 ± 0.00167 s⁻¹ and the kcat/Km [5] was 1790 M⁻¹ s⁻¹.

Work on SmPAT1 (Selaginella moellendorffii) yielded a Km [6] of 189 ± 35 µM, a kcat [6] of 0.085 ± 0.005 s⁻¹ and a kcat/Km [6] of 450 M⁻¹ s⁻¹. It also gave a Km [7] of 22.66 ± 1.5 µM, a kcat [7] of 0.0533 ± 0.000833 s⁻¹ and a kcat/Km [7] of 2360 M⁻¹ s⁻¹.

Source: publication PMC10520873, “Biochemical investigation of the tryptophan biosynthetic enzyme anthranilate phosphoribosyltransferase in plants” (The Journal of Biological Chemistry, 2023)
